The target in test [1] is T1, recombinant human TK1 (human, UniProt P04183 1-234, limits assumed).
T1 construct: also called rHTK1; human recombinant TK1
T1 sequence: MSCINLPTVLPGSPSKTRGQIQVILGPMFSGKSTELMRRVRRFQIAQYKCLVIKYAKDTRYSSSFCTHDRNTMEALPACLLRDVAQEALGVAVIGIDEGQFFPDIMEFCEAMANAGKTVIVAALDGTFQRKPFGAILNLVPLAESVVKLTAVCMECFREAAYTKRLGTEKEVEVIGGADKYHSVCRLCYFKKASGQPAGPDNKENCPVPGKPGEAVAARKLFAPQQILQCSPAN
Kind of test: ECL dot blot with recombinant TK1, 20 to 0.6 ng. The protocol:
(§1) FIGS. 3A-3D show dot blot and Western blot analysis. Recombinant TK1 protein from canine (rCTK1), feline (rFTK1), equine (rETK1) and human (rHTK1) at concentration ranging from 20-0.6 ng was blotted. The membranes were developed with (FIG. 3A) monoclonal antibody produced against active site mAb1 ([…], diluted in TBS containing 3% of non-fat dry milk) and (FIG. 3B) monoclonal antibody produced against C terminal region mAb2 ([…], diluted in TBS containing 3% of non-fat dry milk). Recombinant dog TK1, human TK1 at concentration (10, 5 and 2.5 ng) and human TK1 positive cell extract containing 25 μg of protein (CEM TK1+) and TK1 negative cell extract containing 25 µg of protein (CEM TK1−) were electrophoresed using SDS-PAGE, followed by Western blots with […] of mAb1 diluted in TBS containing 3% of non-fat dry milk (FIG. 3C). Western blot results with […] of mAb2 diluted in TBS containing 3% of non-fat dry milk mAb 2 (FIG. 3D).
(§2) ECL dot blot assay was carried out as described previously (He et al., 2000). In brief, 3 μl of recombinant enzyme at varying concentrations ranged from 20 to 0.6 ng was applied on nitrocellulose membrane (Thermo scientific, Germany). The membrane was blocked in non-fat dry milk 10% (Bio-Rad) for 1 h and then incubated with the hybridoma supernatants or antisera and incubated for overnight at 4° C. Then after the membrane was washed and incubated with a biotinylated second antibody conjugated with horseradish peroxidase directed against mouse (GE healthcare, UK) for 1 h at room temperature. Followed by adding ECL reagent. Finally, the signal was detected by ChemiDoc Imaging System BIO-RAD.

Test [2] addresses T2, recombinant feline TK1 (cat, UniProt P04183 2-234 (human entry)).
T2 construct: also called rFTK1; cat TK1
T2 chain: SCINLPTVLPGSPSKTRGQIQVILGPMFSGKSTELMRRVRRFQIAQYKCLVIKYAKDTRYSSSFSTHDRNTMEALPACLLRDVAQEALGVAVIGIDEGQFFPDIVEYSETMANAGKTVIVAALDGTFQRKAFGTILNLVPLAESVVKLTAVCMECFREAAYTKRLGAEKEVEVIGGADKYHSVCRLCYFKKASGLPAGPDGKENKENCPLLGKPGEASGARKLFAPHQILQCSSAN
Description: ECL dot blot with recombinant TK1, 20 to 0.6 ng. How it is done: as §1, §2

Test [3] concerns the target T3, recombinant equine TK1 (horse, UniProt P04183 2-234 (human entry)).
T3 construct: also called rETK1; horse TK1
T3 chain: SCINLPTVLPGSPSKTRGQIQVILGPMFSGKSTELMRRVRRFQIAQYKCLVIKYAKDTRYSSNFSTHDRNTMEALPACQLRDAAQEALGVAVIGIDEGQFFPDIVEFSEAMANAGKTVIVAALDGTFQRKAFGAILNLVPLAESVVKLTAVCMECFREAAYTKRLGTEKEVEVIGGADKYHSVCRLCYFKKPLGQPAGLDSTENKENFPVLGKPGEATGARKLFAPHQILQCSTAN
Kind of test: ECL dot blot with recombinant TK1, 20 to 0.6 ng. The protocol:
as §1, §2

In test [4] the target is T4, human cytosolic TK1 in CEM TK1+ cell extract (human, UniProt P04183 2-234).
T4 construct: Cell extract with 25 ug (also printed as 25 pg) of protein; also called wild-type of CEM cell extract; cytosolic TK1 from human (CEM+)
T4 sequence: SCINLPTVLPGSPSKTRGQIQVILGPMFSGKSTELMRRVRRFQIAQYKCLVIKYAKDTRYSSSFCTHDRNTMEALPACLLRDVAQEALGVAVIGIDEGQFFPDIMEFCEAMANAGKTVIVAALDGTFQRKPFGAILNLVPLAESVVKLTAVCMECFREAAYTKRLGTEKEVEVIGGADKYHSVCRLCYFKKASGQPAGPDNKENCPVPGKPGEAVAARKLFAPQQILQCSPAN
Kind of test: Western blot after SDS-PAGE of denatured cell extract. The protocol:
as §1
(§3) Western blot assay: recombinant canine TK1, human recombinant TK1 ([…]) and cytosolic TK1 from human (CEM+/−) containing 25 µg of proteins were diluted in a denaturing sample buffer, boiled, and loaded onto a 12% polyacrylamide gel. The gel was electrophoresed in SDS running buffer. […]
Background: Immunoblotting shows a protein as a band on a membrane.

A further test concerns the target T5, recombinant canine TK1 (dog).
T5 construct: also called rCTK1; recombinant dog TK1
T5 chain: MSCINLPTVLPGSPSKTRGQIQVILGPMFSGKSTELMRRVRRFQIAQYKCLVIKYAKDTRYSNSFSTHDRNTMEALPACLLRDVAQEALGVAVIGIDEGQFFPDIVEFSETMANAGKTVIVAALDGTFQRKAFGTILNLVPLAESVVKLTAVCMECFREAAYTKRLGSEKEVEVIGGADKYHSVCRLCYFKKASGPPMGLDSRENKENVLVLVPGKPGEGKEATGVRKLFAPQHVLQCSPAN
Kind of test: Quartz Crystal Microbalance, antibody immobilized, recombinant canine TK1 injected. How it is done: The kinetics of the interaction between the two monoclonal antibodies, mAb1 and mAb2 (150 kDa), and canine recombinant TK1 was measured by a Quartz Crystal Microbalance (QCM) technology. To characterize binding interactions, the monoclonal antibody was immobilized on the sensor surface and the sample containing recombinant canine TK1 was injected over the sensor surface. […] The signal output is given in frequency (Hz) and is directly related to changes in mass on the sensor surface.

For test [5], the target named is T1, recombinant human TK1. Description: ECL dot blot with recombinant TK1. How it is done: as §1, §2
In test [6] the target is T2, recombinant feline TK1. Kind of test: ECL dot blot with recombinant TK1. How it is done: as §1, §2
The target in test [7] is T3, recombinant equine TK1. Kind of test: ECL dot blot with recombinant TK1. The protocol:
as §1, §2

In test [8] the target is T4, human cytosolic TK1 in CEM TK1+ cell …. Kind of test: Western blot after SDS-PAGE, mAb2 at 2 pg/ml as printed. How it is done:
as §1, §3

B1: CTK1-1 (mAb1) (antibody, mouse IgG1, kappa, V domains shown)
VH: EVKLVESGGGLVQPGDSLRLSCATSGFTFNDHYMNWVRQPPGKALEWVAFIGNKAYGYKIEYNSSVKGRFTISRDDSQSFLYLQLNTLRSEDSATYYCARDGAFIYWGQGTVVTVSA
VL: DVVMTQTPLSLPVSLGDQASISCRSSQSLVHSNGNTYLHWYLQKPGQSPKLLIYKVSNRFSGVPDRFSGSGSGSDFTLKISRVEAEDLGVYFCSQSTHIPYTFGGGTELEIRR
notes: Mouse monoclonal IgG1-kappa from hybridoma sub-clone 9C8, raised against the active site peptide (amino acids 161-183) of human TK1; also called 9C8
B1: the binding result (in the test with recombinant human TK1 [1]; with recombinant feline TK1 [2]; with recombinant equine TK1 [3]; in test [4]) was “binds” each time. The Kd (commonly the constant that tells how readily two partners part at equilibrium) with recombinant canine TK1 was 0.3 to 0.75 nM. Moreover, the koff (commonly the rate constant with which the complex falls apart) with recombinant canine TK1 fell in the range of 6.1e-05 to 0.00023 s⁻¹. In addition, the kon (commonly a measure of how fast the partners come together) with recombinant canine TK1 lay in the range of 240000 to 300000 M⁻¹ s⁻¹.

B2: CTK1-2 (mAb2) (antibody, mouse IgG2b, kappa, V domains shown)
VH: EVQLQQSGAELVKPGASVKLSCTASGFNIKDTYMHWVKQRPEQGLEWIGRIDPANGNTKYDPKFQGKATITPDTSSTTAYLQLSSLTSEDTAVYYCARNRAYYGNYYAMDYWGQGTSVTVSS
VL: DIVMTQSPSSLTVTAGEKVTMSCKSSQSLLNSRNQKNYLTWYQQKPGQPPKLLIYWASTRESGVPDRFTGSGFGTDFTLAISSVQAEDLAVYYCQNDYSYPFTFGSGTKLEIKR
notes: Mouse monoclonal IgG2b-kappa from hybridoma sub-clone 3H11, raised against the C-terminal peptide (amino acids 211-225) of dog TK1; also called 3H11
With B2, the binding result with recombinant human TK1 [5] is “no binding (tested: 20 to 0.6 ng)”; in the test with recombinant feline TK1 [6] it was “no binding (tested: 20 to 0.6 ng)”; with recombinant equine TK1 [7], “no binding (tested: 20 to 0.6 ng)”; in [8], “no binding”. In addition, the Kd in the test with recombinant canine TK1 is 0.2 to 0.4 nM. In the test with recombinant canine TK1, the koff lay within 0.00011 to 0.00019 s⁻¹. In the test with recombinant canine TK1, the kon lay within 500000 to 540000 M⁻¹ s⁻¹.

Source of the values: patent publication US20240044903A1 (KOZA NOVEL MATERIALS KOREA, published 2024).
